The DeepSol protein solubility set

Experiment: soluble on expression in E. coli; label from the status in PepcDB or PDB records

Sequence	soluble on expression in E. coli
FQGAMSSSIDISKINSWNKEFQSDLTHQLATTVLKNYNADDALLNKTRLQKQDNRVFNTVVSTDSTPVTNQKSSGRCWLFAATNQLRLNVLSELNLKEFELSQAYLFFYDKLEKANYFLDQIVSSADQDIDSRLVQYLLAAPTEDGGQYSMFLNLVKKYGLIPKDLYGDLPYSTTASRKWNSLLTTKLREFAETLRTALKERSADDSIIVTLREQMQREIFRLMSLFMDIPPVQPNEQFTWEYVDKDKKIHTIKSTPLEFASKYAKLDPSTPVSLINDPRHPYGKLIKIDRLGNVLGGDAVIYLNVDNETLSKLVVKRLQNNKAVFFGSHTPKFMDKKTGVMDIELWNYPAIGYNLPQQKASRIRYHESLMTHAMLITGCHVDETSKLPLRYRVEVSWGKDSGKDGLYVMTQKYFEEYCFQIVVDINELPKELASKFTSGKEEPIVLPIWDPMGALA	soluble
FSDILEDRIERLNACFAKAIARYNYPGVYRGVFPVKCNQERHLIEDLVKFGKPHQFGLEAGSKPELMIALAVLDTPGALLVCNGYKDREYIETAMLAQRLGQTPIIVLEQIEEVDLVIDANRQLGIKPILGVRAKLSTQGMGRWGASSGDRAKFGLTMPEVIEAVDKLREANLLDSLQLMHFHIGSQISAINVIKDAIQEASRIYVELAMLGADMKYLDVGGGLGVDYDGSQTNFYASKNYNMQNYANDIVAELKDTCAERQITVPTLISESGRAIAS	not soluble
FWMELQAVDSYQVKASGILTGADRKIITMLYQPLMGAECLALYQTLFTEVEENRLWSEAHSHVQLLNMLDISLKALFEARLKLEGLGLLKSYVKTENDQRFYIYEILPPLSPEKFFSDGLLNIYLYSKIGNAQFQRLRRFFADETFETDTYSEITRSFQDVFEPFKGGSSAVPSESSQVLVDKIVPKEIEFDDASFDFNLFLSLLSPGMIAREKITKEVRQTILKLHGIYQVSEKDMPSYLYRALDANGEIDIVYLRKIVREGYTIENGAPPKLQMKQETPGKKEPEEALNDEEALQVYLESITPFQLLVDISDGAIPAETDLRVVEEVMNQQNLPVPVMNVLIEYVLLRLDRKLSKNYMMTIAAHWKRKNVKTAKEAMDLAWQEHEKYKRLQEEPATPKNNNYNRNYQKSTRKEILPDWFDKEQVAPAENKMTDKEKQTLEEQVREIKERLNKR	not soluble
GAASPGPSRPGLVPVSIIGAEDEDFENELETNSEEQNSQFQSLEQVKRRPAHLMALLQHVALQFEPGPLLCCLHADMLGSLGPKEAKKAFLDFYHSFLEKTAVLRVPVPPNVAFELDRTRADLISEDVQRRFVQEVVQSQQVAVGRQLEDFRSKRLMGMTPWEQELAQLEAWVGRDRASYEARERHVAERLLMHLEEMQHTISTDEEKSAAVVNAIGLYMRHLGVRTKSGDKK	soluble
GAEDHANHEHDDEMSAAAAHGVESLIYRRDTPFHPVRFNDWLDDWDGAIVRAKGFAWVASRPETVLGVSQAGPSVQAGPIGEWGNDDPSTRLVFIGQEMDGDALIGELDDCLATDKERTETFASDPFPREG	not soluble
GAERTIQLPKPDMNRAGLLMKALSERHSTREYASKALSNTDLSDLLWAANGINRSSEGKRTAPSAMNRQDIDIYVVLPQGTYLYDAKGHKLNLISEGDHRSAVAGGQAFVNNAPVSLVLVSDLSKLGDAKSNHVQLMGAMDAGIVSQNISLFCSAARLATVPRASMDLVRLKAALKLKDTQMPMMNHPVGYFK	soluble
GAMGKTVSQSQRLEHNWNKFFASFVPNLIKKNPQSKQFDHENIKQCAKDIVKILTTKELKKDSSRAPPDDLTKGKRHKVKEFINSYMDKIILKKKQKKALGLSS	soluble
GAMGNLRLIGVPESDVENGTKLENTLQDIIQENFPNLARQANVQIQEIQRTPQRYSSRRATPRHIIVRFTKVEMKEKMLRAAREKGRVTLKGKPIRLTVD	soluble
GDEEKRNRAITARRQHLKSVMLQIAATELEKEEGRREAEKQNYLAEH	soluble
GDFAYTVGFNMSKNWNKVTNLGANDPIIESPWIKKVGYAIGTFYGYRSDGLLTQEDIDTGNYITDGLVPQAGDIKYVDLDGDGKLTDKDRTYIGCDVPDITYGVNLNLRYKGFELSMFGQGVTGTKVNFSMENAWAFSDYASPRKYHLKRWTVDNPNPNAAYPRIYPRTSKHSTYNQYFSDYWLFNADYFRIKNITFGYSFQKPVLQKLSLEALKLYVAAENPFTIRADHRMEDFDPETASGRGVNTRGTSSIAFGVNLTF	not soluble
GDSTILKVLQSNIQHVQLYENPVLQEKALTCIPVSELKRKAQEKLFRARKLDKGTNVSDEDFLLLELLHWFKEEFFRWVNNIVCSKCGGETRSRDEALLPNDDELKWGAKNVENHYCDACQLSNRFPRYNNPEKLLETRCGRCGEWANCFTLCCRALGFEARYVWDYTDHVWTEVYSPSQQRWLHCDACEDVCDKPLLYEIGWGKKLSYIIAFSKDEVVDVTWRYSCKHDEVMSRRTKVKEELLRETINGLNKQRQLSLSESRRKELLQRIIVELVEFISPKTPRPGLEHHHHHH	soluble
GDTSWIKTGKVAWDWWNDWNLKGVPFKAGINMDTYKYYIDFASRNGLEFIVLDEGWYDPKSGDMLTVIPELDLPELIAYGKSKGVEIVLWTVFNVLDSQLEAACKKYADMGIKGFKVDFLDRDDQTAVEMVYRIAEMTARYKLTLDLHGIYKPTGINRTYPHII	not soluble
GDYYDYLFKIVLIGDSGVGKSNLLSRFTRDEFNLESKSTIGVEFATKSIQLKNNKIIKAQIWDTAGQERYRAITSAYYRGAVGALLVYDITKKNSFENIEKWLKELRDNADSNIVILLVGNKSDLKHLRVINDNDATQYAKKEKLAFIETSALEATNVELAFHQLLNEIYNVRQKKQATKN	soluble
GESLFKGPRDYNPISSTICHLTNESDGHTTSLYGIGFGPFIITNKHLFRRNNGTLLVQSLHGVFKVKNTTTLQQHLIDGRDMIIIRMPKDFPPFPQKLKFREPQREERICLVTTNFQTKSMSSMVSDTSCTFPSSDGIFWKHWIQTKDGQAGSPLVSTRDGFIVGIHSASNFTNTNNYFTSVPKNFMELLTNQEAQQWVSGWRLNADSVLWGGHKVFMSKPEEPFQPVKEATQLMNELVYSQ	soluble
GEYKMMMARVAALPEDYQFVFKKIQNYMWNFSAGNGMDMLHIQYELIDLFEAGAAEGRQVLDITGEDVASFADELVANAKTYVSK	soluble
GFIDSHVHIESSMVSPKEFARAVISRGTTTIIVDPHEIANVCGMDGIKYMMEETKNMPLDVFFMLSSCVPATSFETSGAVLKAEDLKELIDSDRVLGLGEMMNYPGVLSREEEVLNKLKLAGSYNKIVDGHAPSVRGNELNAYNLAGIKTDHECSSIEEMNEKIRNGMYIAIREGSAAKNLDILIKGVNAKNERRIMFCADDRHPDDILKSGHMDNCVRRAIYNGIENTAAIRMASINAAECYKLERVGAIAPSYKADLVVLEDLKDVKVNMVIKSGEVVFKDNKHLKDMGSKSDI	not soluble
GFQSNAMKQETPITLHVKSVIEDDGNQEVIEFRTTGFYYVKQNKVYLSYYEEHDLGKVKTIVKVSEGEVLVMRSGAVKMNQRFVTGASTIAKYKMSFGELELKTSTKSIQSDLDEEKGRISIAYDMHVGDEQEHLHNMTITYEGGTHA	soluble
GFRKMAFPSGKVEGCMVQVTCGTTTLNGLWLDDTVYCPRHVICTAEDMLNPNYEDLLIRKSNHSFLVQAGNVQLRVIGHSMQNCLLRLKVDTSNPKTPKYKFVRIQPGQTFSVLACYNGSPSGVYQCAMRPNHTIKGSFLNGSCGSVGFNIDYDCVSFCYMHHMELPTGVHAGTDLEGKFYGPFVDRQTAQAAGTDTTITLNVLAWLYAAVINGDRWFLNRFTTTLNDFNLVAMKYNYEPLTQDHVDILGPLSAQTGIAVLDMCAALKELLQNGMNGRTILGSTILEDEFTPFDVVRQCSGVTHHHHHH	soluble
GFVGRFGASSATTDRSKIFTADFRDFETSFSFQPGVFWGYDDFLSSALLLDIGYNKDKYELKYTVNGGRLLENYDFNSISFGLFPRLNISFVSIGVGGGIKIPLSLKYSKEGDAYSYNKYSLDFGDIKDSFETFYIPYVKVSLDFLIKTKGKFMMSLGVYANYDFPININRNGLLKDISIDKESIAAFDIGFQIGAYLVNR	not soluble
GHMASGSLGELQESQSRLEAATKECQALEGRARAASEQARQLESEREALQQQHSVQVDQLRMQGQSVEAALRMERQAASEEKRKLAQLQVAYHQLFQEYDNHIKSSVVGSERKRGMQLEDLKQQLQQAEE	soluble
GHMKCPVCHQGEMVSGIKDIPYTFRGRKTVLKGIHGLYCVHCEESIMNKEESDAFMAQVKAFRASVNAETVAPEFIVKVRKKLSLTQKEASEIFGGGVNAFSRYEKGNAQPHPSTIKLLRVLDKHPELLNEIR	soluble
GHMLDVAPPVITPRGTKIEPSAGAPFEAVRVARDVLHTSRTAALATLDPVSGYPYTTATNIGIEPDGTPFFFAAGLTLHARNMETDARISVTLAPFGKGDALTLPRLTLVGRADRIGPDEVPLAIARYIARYPKAKLYLSLPDTRLYRLRTEGVQINGGPARNASNITPADLRTDLSGAEELMAAAESEATRLNAIKGEASRLAVLAGAKTGRWKITSIDPDGIDLASASDLARLWFAERVETLKQFEKALAQLLKGS	soluble
GHMSSTPSNQNIIPIIKKESIVSLFEKGIRQDGRKLTDYRPLSITLDYAKKADGSALVKLGTTMVLAGTKLEIDKPYEDTPNQGNLIVNVELLPLAYETFEPGPPDENAIELARVVDRSLRDSKALDLTKLVIEPGKSVWTVWLDVYVLDYGGNVLDACTLASVAALYNTKVYKVEQHSNGISVNKNEVVGKLPLNYPVVTISVAKVDKYLVVDPDLDEESIMDAKISFSYTPDLKIVGIQKSGKGSMSLQDIDQAENTARSTAVKLLEELKKHLGI	soluble
GHMSYSITLRVYQTNRDRGYFSIVEKTVWHFANGGTWSEANGAHTLTMGGSGTSGMLRFMSTKGERITVAVGVHNYKRWCDVVTGLKPDETALVINPQYYNNGGRDYVREKQLAEYSVTSAIGTKVEVVYTVAEGNNLEANVIFS	soluble
GHMTDEDSEANALADPDNPPLSAEQLASAPRMPRIKIIRRALKLTQEEFSARYHIPLGTLRDWEQGRSEPDQPARAYLKIIAVDPEGTAAALRKGATGS	soluble
GIDPFTHMATFISVQLKKTSEVDLAKPLVKFIQQTYPSGGEEQAQYCRAAEELSKLRRAAVGRPLDKHEGALETLLRYYDQICSIEPKFPFSENQICLTFTWKDAFDKGSLFGGSVKLALASLGYEKSCVLFNCAALASQIAAEQNLDNDEGLKIAAKHYQFASGAFLHIKETVLSALSREPTVDISPDTVGTLSLIMLAQAQEVFFLKATRDKMKDAIIAKLANQAADYFGDAFKQCQYKDTLPKEVFPVLAAKHCIMQANAEYHQSILAKQQYYFGEEIARLQHAAELIKTVASRYDEYVNVKDFSDKINRALAAAKKDNDFIYHDRVPDLKDLDPIGKATLVKSTPVNVPISQKFTDLFEKMVPVSVQQSLAAYNQRKADLVNRSIAQMREATTLANGVLASLNLPAAIEDVSGDTVPQSILTKSRSVIEQGGIQTVDQLIKELPELLQRNREILDESLRLLDEEEATDNDLRAKFKERWQRTPSNELYKPLRAEGTNFRTVLDKAVQADGQVKECYQSHRDTIVLLCKPEPELNAAIPSANPAKTMQGSEVVNVLKSLLSNLDEVKKEREGLENDLKSVNFDMTSKFLTALAQDGVINEEALSVTELDRVYGGLTTKVQESLKKQEGLLKNIQVSHQEFSKMKQSNNEANLREEVLKNLATAYDNFVELVANLKEGTKFYNELTEILVRFQNKCSDIVFAR	soluble
GKNTPKSAIIYTTMGDIHISLFYKECKKTVQNFSVHSINGYYNNCIFHRVIKHFMVQTGDPSGDGTGGESIWGNEFEDEFFDHLNHSKPFMVSMANCGPNTNGSQFFITTVPCPWLDFKHTVFGKVTQGSKIVLDIEKVRTDKRDKPLEDIKILNIKINN	soluble
